In patent US7786071B2 (priority 2003, dated 2010):
Positions count from the first letter of the chain named. In names and notes the source's numbering stands. Where two headings read alike, the source gives them in different places.

B1: G1A5: first-round directly evolved PON1 variant, thioredoxin-fused; SEQ ID NO: 25 (DNA), 57 (protein) (protein)
chain: MAKLTALTLLGLGLALFDGQKSSFQTRFNVHREVTPVELPNCNLVKGIDNGSEDLEILPNGLAFISSGLKYPGIMSFDPDKSGKILLMDLNEEDPVVLELGITGNTLDISSFNPHGISTFIDEDNTVYLLVVNHPDSSSTVEVFKFQEKEKSLLHLKTIRHKLLPSVNDIVAVGPEHFYATNDHYFIDPYLKSWEMHLGLAWSFVTYYSPNDVRVVAEGFDFANGINISPDGKYVYIAELLAHKIHVYEKHANWTLTPLKSLDFNTLVDNISVDPVTGDLWVGCHPNGMRIFYYDPENPPGSEVLRIQNILSKEPKVTVVYAENGTVLQGTTVASVYKGKLLIGTVFHKALYCEL
modifications: thioredoxin-fused; In vitro evolved PON variant G1A5
B2: hPON1: wild-type human PON1; kinetic values for enzyme purified from sera; SEQ ID NO: 24, 36 (protein, listed as Homo sapiens)
chain: MAKLIALTLLGMGLALFRNHQSSYQTRLNALREVQPVELPNCNLVKGIETGSEDLEILPNGLAFISSGLKYPGIKSFNPNSPGKILLMDLNEEDPTVLELGITGSKFDVSSFNPHGISTFTDEDNAMYLLVVNHPDAKSTVELFKFQEEEKSLLHLKTIRHKLLPNLNDIVAVGPEHFYGTNDHYFLDPYLQSWEMYLGLAWSYVVYYSPSEVRVVAEGFDFANGINISPDGKYVYIAELLAHKIHVYEKHANWTLTPLKSLDFNTLVDNISVDPETGDLWVGCHPNGMKIFFYDSENPPASEVLRIQNILTEEPKVTQVYAENGTVLQGSTVASVYKGKLLIGTVFHKALYCEL
B3: G3H8: third-round rPON1 variant, unmodified 355 aa protein without tags; SEQ ID NO: 29 (DNA), 61 (protein) (protein)
chain: MAKLTAPTLLGLGLALFDRQKSSFQTRFNVHREVTPVELPNCNLVKGIDNGSEDLEILPNGLAFISSGLKYPGIMSFDPDKSGKILLMDLNEEDPVVLELGITGSTFDLSSFNPHGISTFTDEDNTVYLLVVNHPDSSSTVEVFKFQEKERSLLHLKTIRHKLLPSVNDIVAVGPESFYATNDHYFADPYLKSWEMHLGLAWSFVTYYSPNDVRVVAEGFDFANGINISPDGKYVYIAELLAHKIHVYEKHANWTLTPLKSLDFNTLVDNISVDPVTGDLWVGCHPNGMRIFYYDPENPPGSEVLRIQDILSKEPKVTVVYAENGTVLQGSTVAAVYKGKLLIGTVFHKALYCDL
modifications: In vitro evolved PON variant G3H8
B4: RabPON1: wild-type rabbit PON1, GenBank Accession No. AF220943 (protein, listed as Rattus norvegicus)
chain: MAKLLGLTLVGLVLALYKNHRSSYQTRLNAFREVTPVDLPNCTLVKGIEAGAEDLEILPNGLTFFSTGLKYPGIKSFDPSKPGKILLMDLNEKEPAVSELAIMGNTLDMSSFNPHGISTFIDEDNTVYLLVVSHPDSSSTVEVFKFQEEERSLLHLKTITHELLPSINDIAAVGPESFYATNDHYFADPYLRSWEMYLGLSWSNVVYYSPDKVRVVADGFDFANGIGISLDGKYVYIAELLAHKIHVYEKHANWTLTPLKVLSFDTLVDNISVDPVTGDLWVGCHPNGMRIFFYDSENPPGSEVLRIQSILSEDPKVTVVYAENGTVLQGTTVAAVYKGKLLIGTVFHRALCCDL
B5: 7HY: G3C9-derived PON1 variant, mutations F292V, Y293D, I109M; SEQ ID NO: 74, 75 (protein)
chain: MAKLTALTLLGLGLALFDGQKSSFQTRFNVHREVTPVELPNCNLVKGVDNGSEDLEILPNGLAFISSGLKYPGIMSFDPDKSGKILLMDLNEEDPVVLELGITGNTLDMSSFNPHGISTFTDEDNTVYLLVVNHPDSSSTVEVFKFQEEEKSLLHLKTIRHKLLPSVNDIVAVGPEHFYATNDHYFADPYLKSWEMHLGLAWSFVTYYSPNDVRVVAEGFDFANGINISPDGKYVYIAELLAHKIHVYEKHANWTLTPLKSLDFDTLVDNISVDPVTGDLWVGCHPNGMRIVDYDPKNPPGSEVLRIQDILSEEPKVTVVYAENGTVLQGSTVAAVYKGKLLIGTVFHKALYCEL
modifications: In vitro evolved PON variant 7HY
B6: G3C9: third-round highly soluble rPON1 variant without tags, wt-like activity; SEQ ID NO: 55 (DNA), 56 (protein) (protein)
chain: B5 chain with M109I, V292F, D293Y
modifications: In vitro evolved PON variant G3C9

What was measured:
[1] = type: biochemical; conditions: read-out: 2-Naphthyl acetate KM
[2] = type: biochemical; conditions: pH 8; for Km: read-out: KM(Paraoxon)
[3] = type: biochemical
[4] = type: biochemical; conditions: read-out: Dihydrocoumarin KM
[5] = read-out: KM(Paraoxon); cited from earlier work
[6] = read-out: Kd for the first (higher affinity) calcium; cited from earlier work
[7] = read-out: KM for L-HcyT hydrolysis; cited from earlier work
[8] = read-out: KM(PheAc); cited from earlier work
[9] = type: biochemical; conditions: read-out: KM for L-Hcy hydrolysis
[10] = type: biochemical; remark: listed apart in the source
[11] = type: biochemical; conditions: read-out: DEPCyC hydrolysis KM

| Molecule | Km [1] | kcat(Paraoxon) [2] | Km [2] | kcat (PheAc) ([3]; pH 8) | Km ([3]; pH 8, read-out: KM(PheAc)) | Km [4] | Kd [6] | also measured |
| --- | --- | --- | --- | --- | --- | --- | --- | --- |
| B1 | 80 µM | 1.16 s⁻¹ | 85 µM | 833 s⁻¹ | 390 µM | 120 µM |  |  |
| B2 |  |  |  |  |  |  | 360 nM | Km [5]: 540 µM; Km [7]: 23000 µM; Km [8]: 420 µM |
| B3 | 110 µM | 1.2 s⁻¹ | 88 µM | 1018 s⁻¹ | 320 µM | 76 µM |  | Km [9]: ~19000 µM |
| B4 |  |  |  |  |  |  | 50 nM |  |
| B5 |  |  |  |  |  |  |  | shift in substrate selectivity [10]: up to 4,600 fold |
| B6 |  | 1.1 s⁻¹ | 94 µM | 789 s⁻¹ | 330 µM |  |  | Km ([3]; read-out: Phenylacetate hydrolysis KM): 330 µM; Km [11]: 70 µM |
